One assay deals with T1, ldLIMP2 (Homo sapiens, UniProt Q14108).
T1 construct: Purified luminal domain LIMP-2 (1d-LIMP2) was custom made (Sino Biological Inc., PRC.); purchased Sino Biological Inc
T1 sequence (Q14108 28-433 limits assumed): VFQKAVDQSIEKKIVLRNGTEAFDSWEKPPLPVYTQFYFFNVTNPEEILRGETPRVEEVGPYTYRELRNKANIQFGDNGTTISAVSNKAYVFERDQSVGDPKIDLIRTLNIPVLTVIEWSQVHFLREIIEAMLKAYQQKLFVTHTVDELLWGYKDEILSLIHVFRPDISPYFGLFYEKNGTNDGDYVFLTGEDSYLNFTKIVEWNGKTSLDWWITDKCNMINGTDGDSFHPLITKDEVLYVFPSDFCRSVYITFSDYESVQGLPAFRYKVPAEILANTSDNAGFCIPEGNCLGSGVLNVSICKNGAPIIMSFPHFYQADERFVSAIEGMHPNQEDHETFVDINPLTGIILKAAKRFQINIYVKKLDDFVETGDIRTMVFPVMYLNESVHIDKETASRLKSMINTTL
Put plainly: Fluorescence polarization binding of DSPIIV GCase peptides to ldLIMP-2. The conditions noted are these: for binding to ldLIMP2 by change in fluorescence polarization (δmP), in words: ldLIMP2 fixed at 50 nM, peptide up to 250 nM, FIG. 7A. As for the experimental part:
FIG. 7A-FIG. 7C: Binding and competition of fluorescent labeled or unlabeled DSPIIV (SEQ ID NO 15) GCase peptides to ldLIMP2. The change (δmP) in fluorescence polarization is plotted on the ordinate and the increasing concentrations of the various peptides are on the abscissa. FIG. 7A depicts saturation kinetics under conditions in which the concentration of ldLIMP2 (50 nM) was fixed. […] FIG. 7B depicts a similar study using unlabeled peptides as competitors. […] Each of the unlabeled peptides “competed” with the labeled peptides in the expected ratios. FIG. 7C depicts a competition study in which labeled (WT*) and unlabeled (WT) peptides were used in complementary competition studies.
FIG. 9: Effect pH on binding WT and alanine substituted DSPIIV (SEQ ID NO 15) peptides to ldLIMP2. […] In comparison, incremental decreases were evident in ldLIMP2 binding at pH=6.8, the approximate pH of the ER/cis-Golgi, as follows: the triple mutant (ASPAAV) having the lowest binding (<10% of WT), the DSPAIV (SEQ ID NO 17) (I402A) and DSPIAV (SEQ ID NO 18) (I403A) mutants being intermediate (˜40-50% of WT), and ASPIIV (SEQ ID NO 16) (D399A) having the least change (˜50-60% of WT), relative to WT.
FIG. 12: Stoichiometry between ldLIMP2 and DSPIIV (SEQ ID NO 15). The peptide concentration giving 50% of maximal binding to ldLIMP2 (ordinate) and the concentration of ldLIMP2 (abscissa) have a 1:1 ratio.
Fluorescence Polarization: The DSPIIV (SEQ ID NO 15) and its mutants, and DDQRLLL (SEQ ID NO 14) peptides (FITC labeled or non-labeled) were synthesized (American Peptide Co., Vista, Calif.). Lyophilized peptides were solubilized in acetonitrile and then were diluted at least 10,000-fold into the reactions for fluorescence polarization assessments. The reactions were done at least in duplicate at various peptide and LIMP-2 concentrations (SpectraMax M5, Molecular Device). Fluorescence polarization data were collected and analyzed with SoftMax Pro 5.0 software. Reaction mixtures contained 100 mM phosphate, pH 6.8 and 1 mM DTT.
Background: In fluorescence polarisation assays a small probe gives low polarisation when free and higher when bound to something large.

Assay [1] relates to Gba1 null/null mouse fibroblasts. Put plainly: Immunofluorescence co-localization of expressed GCase constructs (lysosome vs ER/Golgi). The format is cell-based. The note with it: for Pearson Indices for co-localization to the lysosome, in words: DSPIIV variants, FIG. 10B; for co-localization to / retention in the ER/Golgi, in words: calnexin or calreticulin; for localization of GCase DSPIIV variants to the lysosome (Lamp1 / LIMP-2 co-localization), in words: transient transfection, FIG. 10A. The text has this:
Immunofluorescence studies (IF): Mouse Gba1 null/null were used for the host cells for all transfection experiments. pCMV-AC-GFP Mammalian cell expression vector was used for expression of various GCases that included the TKD region (amino acids 407, 408 and 409) or the DSPIIV (SEQ ID NO 15) region (amino acids 399-404). Direct-labeled first antibodies were applied for IF detection; including anti-human GCase, -Calreticulin, -calnexin, -LIMP2, and -Lamp1. Lysotracker and ER tracker (Invitrogen) were also used as indicated. Analyses were done with a Zeiss AxioVert 200M with ApoTome. Co-localization analyses to obtain Pearson Indices were conducted using a module in the Axiovision 4.8 software.
Initial studies to localize the targeting peptide were conducted with GCase-GFP fusion constructs that had COOH-terminal deletions of GCase (FIG. 1). The constructs are designated as GCase-XX or XXX where the Xs represent the number of GCase amino acids deleted from the COOH-terminus. These constructs were transfected into and expressed in Gba1 null/null mouse fibroblasts using the CMV promoter (pCMV-AC-GFP or YFP) Immunofluorescence analyses using anti-human GCase IgG (green) and Lysotracker (Red) were used for colocalization of GCase to the lysosome (Red) or GCase (green) and Calreticulin or Calnexin (Red) for colocalization to the ER or Golgi (FIG. 2). […] Since LIMP-2 is the receptor for targeting of GCase to the lysosome, our working hypothesis was that the peptide sequence for binding of GCase to LIMP-2 was located within amino acids 347-422.

The test system of another assay is Gba1−/− cells. In words: Proportion of GCase protein in cells and media. The format is cell-based, mouse. The conditions noted are these: for Total GCase: cellular + media; for Total GCase / Cellular GCase / Media GCase: mean ± SD, n = 3; for Cellular GCase / Media GCase: total ng. The text has this:
(§1) FIG. 11A-FIG. 11C: Secretion and retention of GCase with alanine variants in the TDK (FIG. 11A) or DSPIIV (SEQ ID NO 15) (FIG. 11B and FIG. 11C) sequences. FIG. 11A depicts activities in the media of Gba1−/− fibroblasts following transient transfections of each of the specified alanine substituted GCases in the TDK region. […] FIG. 11B depicts in the Left Panel: Activities in the media following transient transfections of various DSPIIV (SEQ ID NO 15) alanine substituted GCases and the % of GCase secreted. The latter was calculated as {ng GCase (in media)/[ng GCase (in media)+ng (GCase in lysates)]}×100 (also see Table 2). […] The transfections alone (Null+lipo) had no effect. […] FIG. 11C deicts in cellular lysate GCase activities from the various alanine substituted GCases in the DSPIIV (SEQ ID NO 15) sequence as indicated. […] The doubly alanine substituted GCase had little intracellular activity, i.e., nearly all the GCase was secreted into the media.

The test system of another assay is Gba1−/− fibroblasts. In words: GCase activity in media and cell lysates after transient transfection (secretion and retention). The format is cell-based, mouse. The conditions noted are these: cell lysates; FIG. 11C.
Description: as §1
Enzyme Assays: Cell pellets were homogenized in 0.25% Na-taurocholate and 0.25% Triton X-100. GCase activities were determined fluorometrically with 4 mM 4MU-Glc in 0.2M/0.1M citric-phosphate, pH 5.6 (18, 54)

As for DSPIAV, the “binding to ldLIMP2 by change in fluorescence polarization (δmP), in words” value (shortened to “binding to ldLIMP2 by change … (δmP), in words”) in the assay with ldLIMP2 is on record as “did not show saturation up to 250 nM”.
In the case of ASPIIV, the “binding to ldLIMP2 by change … (δmP), in words” value with ldLIMP2 is given as “little binding”. Further, in the assay with ldLIMP2 (pH 6.8, FIG. 9), the “decrease of binding to ldLIMP-2” value was 30-40% and the “ldLIMP2 binding relative to WT peptide” value was 50-60 % of WT.
Regarding “ASPAAV [triple alanine mutant of the DSPIIV peptide]”, the “binding to ldLIMP2 by change … (δmP), in words” value in the assay with ldLIMP2 was “background changes”. Further, the “ldLIMP2 binding relative to WT peptide” value in the assay with ldLIMP2 (pH 6.8, FIG. 9) was < 10 % of WT.
Take DSPAIV: the “binding to ldLIMP2 by change … (δmP), in words” value with ldLIMP2 is on record as “did not show saturation up to 250 nM”.

B1: D399A: human GCase variant with D399A (ASPIIV sequence) (protein, UniProt P04062 40-536, looked up, variant D399A)
Lysosomal acid …: ARPCIPKSFGYSSVVCVCNATYCDSFDPPTFPALGTFSRYESTRSGRRMELSMGPIQANHTGTGLLLTLQPEQKFQKVKGFGGAMTDAAALNILALSPPAQNLLLKSYFSEEGIGYNIIRVPMASCDFSIRTYTYADTPDDFQLHNFSLPEEDTKLKIPLIHRALQLAQRPVSLLASPWTSPTWLKTNGAVNGKGSLKGQPGDIYHQTWARYFVKFLDAYAEHKLQFWAVTAENEPSAGLLSGYPFQCLGFTPEHQRDFIARDLGPTLANSTHHNVRLLMLDDQRLLLPHWAKVVLTDPEAAKYVHGIAVHWYLDFLAPAKATLGETHRLFPNTMLFASEACVGSKFWEQSVRLGSWDRGMQYSHSIITNLLYHVVGWTDWNLALNPEGGPNWVRNFVASPIIVDITKDTFYKQPMFYHLGHFSKFIPEGSQRVGLVASQKNDLDAVALMHPDGSAVVVVLNRSSKDVPLTIKDPAVGFLETISPGYSIHTYLWRRQ
On to B1, for which, in assay [1], the “Pearson Indices for co-localization to the lysosome, in words” value is “little co-localization to the lysosome”; the “co-localization to / retention in the ER/Golgi, in words” value was “significant retention in the ER/Golgi”; the “localization of GCase DSPIIV variants to the lysosome (Lamp1 / LIMP-2 co-localization), in words” value is listed as “Essentially identical results”. Further, in the assay with Gba1−/− cells, the “Total GCase” value is recorded as 50 ± 4 ng, the “Cellular GCase” value worked out at 32 ± 4 ng and the “Media GCase” value is given as 18 ± 2 ng.

B2: I402A/I403A: human GCase double mutant I402A + I403A (DSPAAV sequence) (protein)
chain: ARPCIPKSFGYSSVVCVCNATYCDSFDPPTFPALGTFSRYESTRSGRRMELSMGPIQANHTGTGLLLTLQPEQKFQKVKGFGGAMTDAAALNILALSPPAQNLLLKSYFSEEGIGYNIIRVPMASCDFSIRTYTYADTPDDFQLHNFSLPEEDTKLKIPLIHRALQLAQRPVSLLASPWTSPTWLKTNGAVNGKGSLKGQPGDIYHQTWARYFVKFLDAYAEHKLQFWAVTAENEPSAGLLSGYPFQCLGFTPEHQRDFIARDLGPTLANSTHHNVRLLMLDDQRLLLPHWAKVVLTDPEAAKYVHGIAVHWYLDFLAPAKATLGETHRLFPNTMLFASEACVGSKFWEQSVRLGSWDRGMQYSHSIITNLLYHVVGWTDWNLALNPEGGPNWVRNFVDSPAAVDITKDTFYKQPMFYHLGHFSKFIPEGSQRVGLVASQKNDLDAVALMHPDGSAVVVVLNRSSKDVPLTIKDPAVGFLETISPGYSIHTYLWRRQ
On to B2, for which, in assay [1], the “Pearson Indices for co-localization to the lysosome, in words” value is “little co-localization to the lysosome”; the “co-localization to / retention in the ER/Golgi, in words” value was “significant retention in the ER/Golgi”; the “localization of GCase DSPIIV variants to the lysosome (Lamp1 / LIMP-2 co-localization), in words” value is “Essentially identical results”. The “GCase activity in cell lysates relative to WT” value in the assay on Gba1−/− fibroblasts is reported as < 5 % of WT. Besides, in the assay with Gba1−/− cells, the “Total GCase” value is on record as 24 ± 4 ng, the “Cellular GCase” value amounted to 4 ± 1 ng and the “Media GCase” value came out at 20 ± 3 ng.

B3: Mouse WT: mouse wild type GCase (protein, UniProt P17439 20-515, looked up)
Lysosomal acid …: AQPCIPKSFGYSSVVCVCNASYCDSLDPVTLPALGTFSRYESTRRGRRMELSVGAIQANRTGTGLLLTLQPEKKFQKVKGFGGAMTDATALNILALSPPTQKLLLRSYFSTNGIEYNIIRVPMASCDFSIRVYTYADTPNDFQLSNFSLPEEDTKLKIPLIHQALKMSSRPISLFASPWTSPTWLKTNGRVNGKGSLKGQPGDIFHQTWANYFVKFLDAYAKYGLRFWAVTAENEPTAGLFTGYPFQCLGFTPEHQRDFISRDLGPALANSSHDVKLLMLDDQRLLLPRWAEVVLSDPEAAKYVHGIAVHWYMDFLAPAKATLGETHRLFPNTMLFASEACVGSKFWEQSVRLGSWDRGMQYSHSIITNLLYHVTGWTDWNLALNPEGGPNWVRNFVDSPIIVDIPKDAFYKQPMFYHLGHFSKFIPEGSQRVALVASESTDLETVALLRPDGSAVVVVLNRSSEDVPLTISDPDLGFLETVSPGYSIHTYLWRRQ
For B3, in the assay on Gba1−/− cells, the “Total GCase” value worked out at 64 ± 7 ng, the “Cellular GCase” value stood at 64 ± 7 ng and the “Media GCase” value is reported as 0 ng. Further, the “% Secreted” value in the assay with Gba1−/− cells (ng GCase in media / (ng in media + ng in lysates) × 100) stood at 0%.

The record behind these values is US9738880B2, “Lysosomal protein targeting sequence and therapeutic applications of same” (Children's Hospital Medical Center, priority 2013, dated 2017).
